In PMC9931213, “Structural basis for ATG9A recruitment to the ULK1 complex in mitophagy initiation” (Science Advances, 2023) one finds ratio to parent data, which are given here for ten variants.

First the molecules themselves.
B1: MBP-FOLDON-ATG9A (692–839) [bacteriophage T4 | human] / TSF-ATG13^HORMA:GST-ATG101 complex, wild type [human] (parent complex)
chain 1: QLQSLVLSEYASTEMSLHALYMHQLHKQQAQAEPERHVWHRRESDESGESAPDEGGEGARAPQSIPRSASYPCAAPRPGAPETTALHGGFQRRYGGITDPGTVPRVPSHFSRLPLGGWAEDGQSASRHPEPVPEEGSEDELPPQVHKV
chain 2: METDLNSQDRKDLDKFIKFFALKTVQVIVQARLGEKICTRSSSSPTGSDWFNLAIKDIPEVTHEAKKALAGQLPAVGRSMCVEISLKTSEGDSMELEIWCLEMNEKCDKEIKVSYTVYNRLSLLLKSLLAITRVTPAYRLSRKQGHEYVILYRIYFGEVQLSGLGEGFQTVRVGTVGTPVGTITLSCAYRINLAFMS
chain 3: MNCRSEVLEVSVEGRQVEEAMLAVLHTVLLHRSTGKFHYKKEGTYSIGTVGTQDVDCDFIDFTYVRVSSEELDRALRKVVGEFKDALRNSGGDGLGQMSLEFYQKKKSRWPFSDECIPWEVWTVKVHVVALATEQERQICREKVGEKLCEKIINIVEVMNRHEYLPKMPTQSEVDNVFDTGLRDVQPYLYKISFQITDALGTSVTTTMRRLIKDTLAL

In this experiment the parent is B1. The experiment is described as follows: GST pull-down; n = 3; read off a plot.
chain 2 METDLNSQDRKDLDKFIKFFALKTVQVIVQARLGEKICTRSSSSPTGSDDFNLAIKDIPEVTHEAKKALAGQLPAVGRSMCVEISLKTSEGDSMELEIWCLEMNEKCDKEIKVSYTVYNRLSLLLKSLLAITRVTPAYRLSRKQGHEYVILYRIYFGEVQLSGLGEGFQTVRVGTVGTPVGTITLSCAYRINLAFMS [chain 2 W50D]: the ratio to parent was around 0.02. Take chain 2 METDLNSQDRKDLDDFIKFFALKTVQVIVQARLGEKICTRSSSSPTGSDWFNLAIKDIPEVTHEAKKALAGQLPAVGRSMCVEISLKTSEGDSMELEIWCLEMNEKCDKEIKVSYTVYNRLSLLLKSLLAITRVTPAYRLSRKQGHEYVILYRIYFGEVQLSGLGEGFQTVRVGTVGTPVGTITLSCAYRINLAFMS [chain 2 K15D]: the ratio to parent was around 0.26. The figure for chain 2 METDLNSQDRKDLDKDIKFFALKTVQVIVQARLGEKICTRSSSSPTGSDWFNLAIKDIPEVTHEAKKALAGQLPAVGRSMCVEISLKTSEGDSMELEIWCLEMNEKCDKEIKVSYTVYNRLSLLLKSLLAITRVTPAYRLSRKQGHEYVILYRIYFGEVQLSGLGEGFQTVRVGTVGTPVGTITLSCAYRINLAFMS [chain 2 F16D] is around 0.1; for chain 2 METDLNSQDRKDLDKFIKFFALKTVQVIVQARLGEKICTRSSSSPTGSDWFNLAIKDIPEVTHEAKKALAGQLPAVGRSMCVEISLKTSEGDSMELEIWCLEMNEKCDKEIKVSDTVYNRLSLLLKSLLAITRVTPAYRLSRKQGHEYVILYRIYFGEVQLSGLGEGFQTVRVGTVGTPVGTITLSCAYRINLAFMS [chain 2 Y115D] it is around 0.97; for chain 3 MNCRSEVLEVSVEGRQVEEAMLAVLHTVLLHRSTGKFHYKKEGTDSIGTVGTQDVDCDFIDFTYVRVSSEELDRALRKVVGEFKDALRNSGGDGLGQMSLEFYQKKKSRWPFSDECIPWEVWTVKVHVVALATEQERQICREKVGEKLCEKIINIVEVMNRHEYLPKMPTQSEVDNVFDTGLRDVQPYLYKISFQITDALGTSVTTTMRRLIKDTLAL [chain 3 Y45D] it is around 0.02. For chain 2 METDLNSQDRKDLDKFIKFFALKTVQVIVQARLGEKICTRSSSSPTGSDWFNLAIKDIPEVTHEAKKALAGQLPAVGRSMCVLISLKTSEGDSMELEIWCLEMNEKCDKEIKVSYTVYNRLSLLLKSLLAITRVTPAYRLSRKQGHEYVILYRIYFGEVQLSGLGEGFQTVRVGTVGTPVGTITLSCAYRINLAFMS [chain 2 E83L], the ratio to parent was around 0.88.

chain 2 METDLNSQDRKDLDKFIDFFALKTVQVIVQARLGEKICTRSSSSPTGSDWFNLAIKDIPEVTHEAKKALAGQLPAVGRSMCVEISLKTSEGDSMELEIWCLEMNEKCDKEIKVSYTVYNRLSLLLKSLLAITRVTPAYRLSRKQGHEYVILYRIYFGEVQLSGLGEGFQTVRVGTVGTPVGTITLSCAYRINLAFMS [chain 2 K18D]: the ratio to parent was around 0.11. The figure for chain 2 METDLNSQDRKDLDKFIKFFALKTVQVIVQARLGEKICTRSSSSPTGSDWFNLAIKDIPEVTHEAKKALAGQLPAVGRSMCVEISLKTSEGDSMELEIWCLEMNEKCDKEIKVSYTVDNRLSLLLKSLLAITRVTPAYRLSRKQGHEYVILYRIYFGEVQLSGLGEGFQTVRVGTVGTPVGTITLSCAYRINLAFMS [chain 2 Y118D] is around 0.03; for chain 2 METDLNSQDRKDLDKFIKDFALKTVQVIVQARLGEKICTRSSSSPTGSDWFNLAIKDIPEVTHEAKKALAGQLPAVGRSMCVEISLKTSEGDSMELEIWCLEMNEKCDKEIKVSYTVYNRLSLLLKSLLAITRVTPAYRLSRKQGHEYVILYRIYFGEVQLSGLGEGFQTVRVGTVGTPVGTITLSCAYRINLAFMS [chain 2 F19D] it is around 0.02. The figure for chain 3 MNCRSEVLEVSVEGRQVEEAMLAVLHTVLLHRSTGKFHYKKEGTYSIGTVGTQDVDCDFIDFTYVRVSSEELDRALRKVVGEFKDALRNSGGDGLGQMSLEFYQKKKSRDPDSDECIPWEVWTVKVHVVALATEQERQICREKVGEKLCEKIINIVEVMNRHEYLPKMPTQSEVDNVFDTGLRDVQPYLYKISFQITDALGTSVTTTMRRLIKDTLAL [chain 3 W110D, chain 3 F112D] is around 0.8.
